Experimental data: patent US20180282409A1 (Hoffmann-La Roche, published 2018)

Key:
[1] = molecular target: T1, extracellular domain of recombinant human CD19 receptor (human, UniProt P15391 20-291); test: SPR (BIAcore), half-life of the complex
T1 construct: extracellular domain; also called recombinant human CD19 ECD
T1 sequence (looked up): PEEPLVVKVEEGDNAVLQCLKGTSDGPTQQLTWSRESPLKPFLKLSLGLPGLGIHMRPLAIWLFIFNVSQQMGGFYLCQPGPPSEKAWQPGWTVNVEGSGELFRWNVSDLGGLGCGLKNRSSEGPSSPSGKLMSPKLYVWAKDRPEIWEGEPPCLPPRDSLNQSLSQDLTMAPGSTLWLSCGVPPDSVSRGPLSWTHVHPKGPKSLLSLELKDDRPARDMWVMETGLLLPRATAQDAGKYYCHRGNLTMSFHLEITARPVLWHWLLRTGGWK

[2] = molecular target: T2, cynomolgus monkey CD19 extracellular domain (ECD) fused to the human PSCA GPI anchor sequence, on transfected … (cynomolgus monkey; human); test: flow cytometry on HEK293 cells presenting cynomolgus CD19 ECD by GPI anchor
T2 construct: Presented on the surface of transiently transfected HEK293 cells; its processing in the cell is not described; also called cynomolgus CD19-ECD; cyCD19 ECD
T2 chain: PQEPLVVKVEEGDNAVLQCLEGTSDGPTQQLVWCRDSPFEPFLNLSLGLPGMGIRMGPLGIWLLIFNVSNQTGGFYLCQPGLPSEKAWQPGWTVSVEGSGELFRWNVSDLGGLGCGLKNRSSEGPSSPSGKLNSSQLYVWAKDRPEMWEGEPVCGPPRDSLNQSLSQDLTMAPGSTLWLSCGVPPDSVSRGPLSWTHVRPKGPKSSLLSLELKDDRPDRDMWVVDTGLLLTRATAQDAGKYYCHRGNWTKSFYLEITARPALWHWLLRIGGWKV
Procedure: HEK293 cells were transfected with 1 μg of plasmid DNA per 1.5×10⁶ cells using LipofectAmine 2000 and incubated thereafter for 48 hours at 37° C. […] GWKV; SEQ ID NO: 31) extracellular domain (ECD) fused to the human PSCA GPI anchor sequence ([…] WGPGQL; SEQ ID NO: 32) for extracellular presentation. […] The starting concentration of the antibodies was set to 60 μg/mL (2× final concentration) and then diluted in a 1:3 (v/v) titration series. The primary antibody was incubated on the cells for one hour at room temperature, followed by two wash steps. For secondary detection, anti-huIgG (H+L) antibody conjugated to Alexa488 in a concentration of 30 μg/mL was used.

B1: humanized anti-human CD19 antibody var.5:S27eP (antibody, V domains shown)
VH: QVQLVQSGAEVKKPGASVKVSCKASGYTFTDYIMHWVRQAPGQGLEWMGYINPYNDGSKYTEKFQGRVTMTSDTSISTAYMELSRLRSDDTAVYYCARGTYYYGSALFDYWGQGTTVTVSS
VL: DIVMTQTPLSLSVTPGQPASISCKSSQSLENPNGNTYLNWYLQKPGQSPQLLIYRVSKRFSGVPDRFSGSGSGTDFTLKISRVEAEDVGVYYCLQLTHVPYTFGQGTKLEIK
notes: also called variant 5 (S27eP); variant 5
t1/2 [1]: 43.6 min

B2: humanized anti-human CD19 antibody var.9:S27eP/N28S (antibody, V domains shown)
VH: QVQLVQSGAEVKKPGASVKVSCKASGYTFTDYIMHWVRQAPGQGLEWMGYINPYNDGSKYTEKFQGRVTMTSDTSISTAYMELSRLRSDDTAVYYCARGTYYYGSALFDYWGQGTTVTVSS
VL: DIVMTQTPLSLSVTPGQPASISCKSSQSLENPSGNTYLNWYLQKPGQSPQLLIYRVSKRFSGVPDRFSGSGSGTDFTLKISRVEAEDVGVYYCLQLTHVPYTFGQGTKLEIK
notes: also called variant 9 (S27eP/N28S); variant 9
t1/2 [1]: 4 min

B3: wild-type humanized anti-human CD19 antibody (var.0: wt) (antibody, V domains shown)
VH: EVQLQQSGPELVKPGASVKMACKASGYTFTDYIMHWVKQKTGQGLEWIGYINPYNDGSKYTEKFNGKATLTSDKSSITAYMELSSLTSEDSAVYYCARGTYYYGSALFDYWGQGTTLTVSS
VL: DAVMTQTPLSLPVSLGDQASISCRSSQSLENSNGNTYLNWYLQKPGQSPQLLIYRVSKRFSGVLDRFSGSGSGTDFTLKISRVEAEDLGVYFCLQLTHVPYTFGGGTKLEIK
notes: it was detected with anti-human IgG and captured with anti-human Fab; also called variant 0: wt; humanized wild-type antibody
EC50 [2]: 0.313 µg/mL
